Results published in paper PMC5983854, “Structure-guided approach to site-specific fluorophore labeling of the lac repressor LacI” (PLoS ONE, 2018).
Substitutions are numbered along the chain they refer to. In names and notes the source's numbering stands.

B1: LacI^ΔCterm (lactose operon repressor LacI, tetramerization helix residues 339-360 replaced with a 6xHis tag) (domain or fragment, E. coli, UniProt P03023 1-338, looked up)
chain: MKPVTLYDVAEYAGVSYQTVSRVVNQASHVSAKTREKVEAAMAELNYIPNRVAQQLAGKQSLLIGVATSSLALHAPSQIVAAIKSRADQLGASVVVSMVERSGVEACKAAVHNLLAQRVSGLIINYPLDDQDAIAVEAACTNVPALFLDVSDQTPINSIIFSHEDGTRLGVEHLVALGHQQIALLAGPLSSVSARLRLAGWHKYLTRNQIQPIAEREGDWSAMSGFQQTMQMLNEGIVPTAMLVANDQMALGAMRAITESGLRVGADISVVGYDDTEDSSCYIPPLTTIKQDFRLLGQTSVDRLLQLSQGQAVKGNQLLPVSLVKRKTTLAPNTQTAS
notes: Lactose operon repressor LacI, E. coli, 360 amino acid monomer; the native 22 C-terminal amino acids (tetramerization helix, residues 339-360) are replaced with a 6xHis tag, the rest is wild type; only the replaced stretch 339-360 is printed; source: E. coli TOP10 (pBAD24, arabinose-induced), purified (HisTrap HP, Superdex 200 SEC); not shown: His6, C-terminal, kept
B2: LacI^Dimer (LacI^ΔCterm with C107A, C140A; Cys281 retained) (domain or fragment, E. coli, UniProt P03023 1-338, looked up)
chain: B1 chain with C107A, C140A
notes: Lactose operon repressor LacI, E. coli; residues 339-360 replaced with a 6xHis tag; Cys107 and Cys140 replaced with alanine, Cys281 retained; source: E. coli TOP10 (pBAD24, arabinose-induced), purified (HisTrap HP, Superdex 200 SEC); not shown: His6, C-terminal, kept

Assays:
[1] = test system: LacIDimer-S28C (Escherichia coli); test: EMSA; settings: apparent Kd; 3 mM MgCl2; EMSA: 1 nM DNA, 0.5-100 nM LacI, 10 mM Tris pH 7.5, 50 mM NaCl, 3 mM MgCl2, 1 mM TCEP, 0.1 mg/mL BSA, 5% glycerol, room temperature 1 h; TIRF: 100 mM phosphate
[2] = target: the molecule itself; test: SEC; analytical gel filtration on HiLoad 16/600 Superdex 200, 0.2 mL/min, buffer C (200 mM Tris-HCl pH 7.5, 200 mM KCl, 1 mM EDTA, 0.5 mM TCEP); column calibrated with proteins of known molecular weight; dimer to monomers

| Molecule | Kd [1] [nM] | stoichiometry N [2] |
| --- | --- | --- |
| 5'-Cy5 O1 operator dsDNA | 5.63 | – |
| B1 | – | 2 |
| B2 | – | 2 |
